From patent US20250236667A1, “ANTIBODIES TO MUTANT CALRETICULIN AND USES THEREOF” (CENTRAL ADELAIDE LOCAL HEALTH NETWORK INC, priority 2021, published 2025) come the findings set out here.

Assay [1] deals with ruxolitinib-resistant TF-1 TpoR CALR^del61 cells. The assay can be described thus: Colony formation in MethoCult. It counts as cell-based, human. As to conditions: after 72 hours of treatment. Here is the method: A. Graph showing effect of ruxolitinib on megakaryocyte differentiation at 50 and 100 nM in healthy CD34+ cells (n=4). B. Effect of 4D7 on TPO-dependent megakaryocyte differentiation of healthy CD34+ cells cultured with 20 μg/mL 4D7 or IgG control (n=4). C. Total numbers of hematopoietic colonies plated in MethoCult from healthy cord blood after treatment with 4D7 or IgG. CFU-GM, colony forming unit-granulocyte macrophage: BFU-E, blast forming unit-erythroid: CFU-GEMM, colony forming unit granulocyte, erythroid, monocyte, megakaryocyte (n=3).D. CD41+megakaryocyte colonies from healthy CD34+ cells observed on collagen matrix after 4D7 treatment. Colonies were cultured in TPO, SCF. IL-9 and IL-3. E. Number of megakaryocyte colony forming units observed in MegaCult assay after treatment of healthy cord blood CD34+ cells with either IgG or 4D7 (n=3). F. Western blot showing signalling in ruxolitinib-resistant TF-1 TpoR CALR^del61 compared to ruxolitinib sensitive TF-1 TpoR CALR^del61 cells after treatment with 100 nM ruxolitinib for 16 hours or 30 minutes and blotted for phospho-STAT5, total STAT5, phospho-ERK, total ERK and actin as indicated. Ruxolitinib-sensitive cells were non-viable after 16 hours of treatment. […] Cells counted using Trypan Blue exclusion with replicate wells (n=3). […]

Assay [2] deals with TF-1 TpoR CALR^del61 cells. The assay can be described thus: Cell proliferation, trypan blue exclusion. It counts as cell-based, human. As to conditions: over 5 days at 2, 10 and 20 μg/mL. Here is the method: […] Cells were seeded in triplicate and each well was counted in triplicate every 24 hours for 5 days using trypan blue exclusion.
For assay [3], the system named is ruxolitinib-resistant TF-1 TpoR CALR^del61 cells in NSG mice. The assay can be described thus: Bone marrow engraftment xenograft model, ruxolitinib-resistant cells. As to conditions: cells resistant to 100 nM ruxolitinib; 12.5 mg/kg twice weekly from day 7; P=0.0008. It counts as in vivo. The procedure: All procedures were approved by the South Australian Health and Medical Research Animal Ethics Committee (Protocol SAM21-018). Bone marrow engraftment model: 4-6 week old NSG mice were x-ray irradiated with 150 cGy and 5×10^5 cells (TF-1-TpoR CALR^del61) or 5×10^4 cells (100 nM ruxolitinib resistant TF-1 TpoR CALR^del61) were intravenously injected into mice. Seven days after injection, mice were administered 12.5 mg/kg IgG or 4D7 by intraperitoneal injection twice weekly. Tail vein bleeds were taken at 3 weeks and analysed via flow cytometry to determine human leukaemia content in the peripheral blood. Leukemic cells were PI-, mCD45.1, hCD33+, zsGreen+. Mice were monitored daily and euthanized once clinical symptoms were observed. At the time of euthanasia, cardiac puncture was performed to obtain both peripheral blood and serum for analysis. Additionally, bone marrow from both femurs, spine and spleens were analysed for leukemic content as detailed above. Chloroma model: 4-6 week old NSG mice were anaesthetised by isoflurane inhalation and shaved on the left back/flank and 1×10^7 cells were injected into the mice. Cells were pre-treated with 20 μg/mL IgG or 4D7 for 1 hour prior to injection. Seven days after injection, mice were administered 12.5 mg/kg IgG or 4D7 by intraperitoneal injection twice weekly. Tumour progression was assessed through caliper measurements every 2 days. […]

The test system of assay [4] is TpoR in TF-1 TpoR CALR^del61. The assay can be described thus: TpoR tyrosine phosphorylation, immunoprecipitation and Western blot. The settings on record: 8 hours of 20 μg/mL. It counts as cell-based, human. The procedure:
A. Cell extracts blotted for phospho-STAT1, total STAT1, phospho-STAT3, total STAT3 and actin from TF-1 TpoR cells after incubation with 10 or 20 μg/mL 4D7 or IgG for 4 or 8 hours as indicated. B. Similar experiment using TPO-independent TF-1 TpoR CALR^del61 cells at 4 and 8 hours. C. Similar experiment shown using TPO-independent TF-1 TpoR CALR^del52 cells, 8 hours. D. Flow cytometry analysis for cell cycle distribution of TF-1 TpoR CALR^del61 cells exposed to 20 μg/mL IgG or 4D7 for 48 hours. Cells were harvested and fixed and stained with propidium iodide and their DNA contents were analysed. Results from one representative experiment shown. Percentages of cells in Sub Go, G1. S and G2/M cycle indicated. E. Western blot showing specific co-immunoprecipitation of mutant CALR^del61 cells with TpoR anti-FLAG antibody under reducing conditions detected by total and mutant specific CALR antibodies. Arrowheads represent detected CALR protein. F. Western blot showing decreased TpoR phosphorylation in a TpoR immunoprecipitated after 8 hours of 20 μg/mL 4D7 treatment compared to PBS or IgG control in TF-1 TpoR CALR^del61. […]
In general terms: Immunoblotting shows a protein as a band on a membrane.

B1: 4D7: rat monoclonal IgG2a antibody against the mutant CALR neoepitope; VH SEQ ID NO: 5, VL SEQ ID NO: 7 (antibody, listed as Rattus rattus, V domains shown)
VH: QVQLQQSGAELAKPGSSVKISCKASGYTFTNYDMSWIKQRPGQALEWIGAINPGNGVTDYNEKFRGKATLTVDKSSSTAFMQLSSLTPEDTAVYHCAREYRDNYGYFDYWGQGVMVTVSS
VL: DIVLTQTPVSLSVTLGDQASISCRSSQSLEYSDGYTYLDWFLQKPGQSPQLLIYEVSSRFSGVPDRFIGRGSGTDFTLKISRVEPEDLGVYYCFQATHDPFTFGSGTKLEIK
In the case of B1, the “inhibitory activity on colony formation” value in assay [1] was “strong inhibitory activity”. Also, the TPO-independent cell growth entry in assay [2] is “blockade of TPO-independent cell growth”. Further, in assay [3], the “survival, hazard ratio” value is 0.26. The TpoR tyrosine phosphorylation entry in assay [4] is recorded as “inhibition”.
